This assay deals with T1, recombinant human full length Fzd7 (human, UniProt O75084 33-574).
T1 construct: also called full-length recombinant Fzd7
The assay can be described thus: co-IP; recombinant human full-length Fzd7 and ILK mixed 1:1 in lysis buffer, incubated overnight at 4 °C with antibody (anti-Fzd7 in Fig. 4D); Western blot for ILK and Fzd7. As to conditions: both partners purified. A general note: Immunoblotting shows a protein as a band on a membrane.

B1: recombinant human full-length ILK (enzyme, UniProt Q13418 1-452, looked up)
chain: MDDIFTQCREGNAVAVRLWLDNTENDLNQGDDHGFSPLHWACREGRSAVVEMLIMRGARINVMNRGDDTPLHLAASHGHRDIVQKLLQYKADINAVNEHGNVPLHYACFWGQDQVAEDLVANGALVSICNKYGEMPVDKAKAPLRELLRERAEKMGQNLNRIPYKDTFWKGTTRTRPRNGTLNKHSGIDFKQLNFLTKLNENHSGELWKGRWQGNDIVVKVLKVRDWSTRKSRDFNEECPRLRIFSHPNVLPVLGACQSPPAPHPTLITHWMPYGSLYNVLHEGTNFVVDQSQAVKFALDMARGMAFLHTLEPLIPRHALNSRSVMIDEDMTARISMADVKFSFQCPGRMYAPAWVAPEALQKKPEDTNRRSADMWSFAVLLWELVTREVPFADLSNMEIGMKVALEGLRPTIPPGISPHVCKLMKICMNEDPAKRPKFDMIVPILEKMQDK
notes: Integrin-linked kinase (ILK), human, recombinant, full length; also called full-length recombinant ILK
B1: the binding result was “binds”.
